# Assay results taken from paper PMC10099132, “Sequence and Structural Motifs Controlling the Broad Substrate Specificity of the Mycobacterial Hormone-Sensitive Lipase LipN” (ACS Omega, 2023).
# Columns and labels:
# Experiment in all cases: purified protein, by the assay type
# Parameters in all cases: fluorogenic ester hydrolysis, fluorescein release, Michaelis-Menten fit of initial rates
# [1] = substrate: CC(C)C(=O)OCOc1ccc2c(c1)Oc1cc(OCOC(=O)C(C)C)ccc1C21OC(=O)c2ccccc21
# Description: (§1) The enzyme kinetic activity of LipN was assayed via the hydrolysis of the fluorogenic substrates (Figure 1) in accordance with past kinetic analysis of mycobacterial serine hydrolases.[37],[38],[40],[66],[67] Kinetic assays were run in triplicate on black 96-well plates in a Synergy H1 Hybrid Reader (BioTek). Fluorogenic ester substrates (10 mM in DMSO) were diluted to a starting concentration of 100 μM in PBS containing acetylated BSA (Sigma; 0.1 mg/mL). Eight serial dilutions (1:1; 120 μL into 240 μL total volume) of each substrate were made using PBS–BSA. Fluorogenic substrate dilutions (95 μL) were then transferred to opaque 96-well microplate (Corning, Lowell, MA). Reactions were initiated by quickly adding enzyme (5 μL, 3.0 nM final concentration) to each assay well, mixed, and the fluorescence counts measured every 26–30 s for 4.5 min with a BioTek H1 Synergy multimode plate reader (Biotek Instruments; Winooski, VT) at ambient temperature. The instrument measured relative fluorescence through excitation at λ = 485 nm and emission at λ = 520 nm. The fluorescence change was converted to molar concentrations using a fluorescein standard curve (300–2.3 nM), whose fluorescence was measured simultaneously. The initial rates of the enzyme-catalyzed reactions were measured in triplicate and plotted versus fluorogenic substrate concentration. […] (A) Activation of fluorogenic ester substrates by MmLipN. Each of the substrates is composed of diacyloxymethyl ether fluorescein with varying R-groups. The differing R-groups have been organized into classes and colored based on chemical functionality. All of the substrates were synthesized as described previously.[38],[43] Substrates 6, 10–11, 14–15, 20, 23–30, and 33 were newly synthesized for this characterization of MmLipN. Detailed synthetic characterization is provided in the Supporting Information. (B) Global comparison of the catalytic specificity (kcat/KM) of MmLipN against each of the 33 substrates with ester classes labeled. Catalytic efficiency values (kcat/Km) are given ± SD based on at least three independent kinetic replicates. (C, D) Kinetic activity of MmLipN against high-activity ester substrates 1 (black circles), 7 (blue squares), and 20 (red diamonds) and low-activity ester substrates 12 (green circles), 16 (red squares), 27 (purple diamonds), and 31 (orange squares). Low- and high-activity substrates display classic Michaelis–Menten kinetics with MmLipN and activity above background hydrolysis rates. Traces colored based on ester classification from (A, B). All measurements were completed in at least triplicate and shown ± SD.
# [2] = substrate: CC1(C(=O)OCOc2ccc3c(c2)Oc2cc(OCOC(=O)C4(C)CC4(Cl)Cl)ccc2C32OC(=O)c3ccccc32)CC1(Cl)Cl
# Description: as §1
# [3] = substrate: CC1(C)CC1C(=O)OCOc1ccc2c(c1)Oc1cc(OCOC(=O)C3CC3(C)C)ccc1C21OC(=O)c2ccccc21
# Description: as §1
# [4] = substrate: CCC(=O)OCOc1ccc2c(c1)Oc1cc(OCOC(=O)CC)ccc1C21OC(=O)c2ccccc21
# Description: as §1
# [5] = substrate: CCCC(=O)OCOc1ccc2c(c1)Oc1cc(OCOC(=O)CCC)ccc1C21OC(=O)c2ccccc21
# Description: as §1
# [6] = substrate: COCC(=O)OCOc1ccc2c(c1)Oc1cc(OCOC(=O)COC)ccc1C21OC(=O)c2ccccc21
# Description: as §1
# [7] = substrate: COCCOCCC(=O)OCOc1ccc2c(c1)Oc1cc(OCOC(=O)CCOCCOC)ccc1C21OC(=O)c2ccccc21
# Description: as §1
# [8] = substrate: N#CC1(C(=O)OCOc2ccc3c(c2)Oc2cc(OCOC(=O)C4(C#N)CC4)ccc2C32OC(=O)c3ccccc32)CC1
# Description: as §1
# [9] = substrate: N#CCC(=O)OCOc1ccc2c(c1)Oc1cc(OCOC(=O)CC#N)ccc1C21OC(=O)c2ccccc21
# Description: as §1
# [10] = substrate: O=C1OC2(c3ccc(OCOC(=O)C4(c5ccccc5)CC4)cc3Oc3cc(OCOC(=O)C4(c5ccccc5)CC4)ccc32)c2ccccc21
# Description: as §1
# [11] = substrate: O=C1OC2(c3ccc(OCOC(=O)C4(c5ccccn5)CC4)cc3Oc3cc(OCOC(=O)C4(c5ccccn5)CC4)ccc32)c2ccccc21
# Description: as §1
protein,measurement,setting,value
"MmLipN (LipN from M. marinum) (Mycobacterium marinum M) (protein, E. coli LOBSTR (DE3); Ni-NTA) MTNSLPGETDLHPETVHATMSWLSRVQNTVTVVGAKVIPWVPDVAKRLITRGRSVIIDGNTLDPALQLMLSGMRVVGLDGLVIDDDLAASRAHMREAMLGFPGPQIHVDVEELTLPGPAGDISARHYRPPGDAAAPLLVFYHGGGWALGDLDTHDAVCRLTCRDAGIHVLAIDYRLSPEDRAPAAIDDAFAAFEWAHAHAAELGALPGRVAVGGDSAGGNLAAVVSQLARDSGGPAPIFQWLIYPRTDFAGRTRSASLFARGFLLTKRDIDWFHSQYLKGSGIEPTDPRVSPLRAESLAGLAPALIAVAGFDPLRDEGENYATALRAAGTPVDLRAMGSLTHGFLNLFPLGGGCAAATSELISALRAHLTRV",Km,[1],9.5 ± 2.2 µM
same,kcat,[1],0.017 ± 0.014 s⁻¹
same,kcat/Km,[1],1800 ± 800 M⁻¹ s⁻¹
same,Km,[2],0.87 ± 1.1 µM
same,kcat,[2],1.1e-05 ± 3e-05 s⁻¹
same,kcat/Km,[2],12 ± 19 M⁻¹ s⁻¹
same,Km,[3],1.7 ± 1.1 µM
same,kcat,[3],0.0011 ± 0.0018 s⁻¹
same,kcat/Km,[3],660 ± 590 M⁻¹ s⁻¹
same,Km,[4],4.2 ± 0.5 µM
same,kcat,[4],0.18 ± 0.06 s⁻¹
same,kcat/Km,[4],42000 ± 15000 M⁻¹ s⁻¹
same,Km,[5],6.2 ± 0.1 µM
same,kcat,[5],0.062 ± 0.029 s⁻¹
same,kcat/Km,[5],10000 ± 5000 M⁻¹ s⁻¹
same,Km,[6],2.6 ± 1.1 µM
same,kcat,[6],0.11 ± 0.12 s⁻¹
same,kcat/Km,[6],40000 ± 25000 M⁻¹ s⁻¹
same,Km,[7],21 ± 4 µM
same,kcat,[7],0.0005 ± 0.0004 s⁻¹
same,kcat/Km,[7],26 ± 11 M⁻¹ s⁻¹
same,Km,[8],1.7 ± 1.1 µM
same,kcat,[8],0.0012 ± 0.0018 s⁻¹
same,kcat/Km,[8],670 ± 590 M⁻¹ s⁻¹
same,Km,[9],3.1 ± 0.6 µM
same,kcat,[9],0.015 ± 0.008 s⁻¹
same,kcat/Km,[9],4900 ± 1400 M⁻¹ s⁻¹
same,Km,[10],13 ± 8 µM
same,kcat,[10],5.8e-05 ± 0.00014 s⁻¹
same,kcat/Km,[10],4.4 ± 5.4 M⁻¹ s⁻¹
same,Km,[11],0.049 ± 0.027 µM
same,kcat,[11],2.6e-05 ± 2e-05 s⁻¹
same,kcat/Km,[11],530 ± 250 M⁻¹ s⁻¹
